Test results taken from the DeepSol protein solubility set.

Assay: soluble on expression in E. coli; label from the status in PepcDB or PDB records

Soluble on expression in E. coli, soluble:
MSLYIKVLSVSELNNYIKRVVDSDYILSNAQVKGEISNFKFHSSGHVYFSLKDEGGKINCIMFRSNAEKLKFIPENGMKVNVKGRVSVYVKDGAYQLYCTEITPEGRGELYEAFEKLKEKLLNEGMFSEEHKRNIPKYPKMIGVITSPTGAAIRDIINVATRRNKSVDMIICPTLVQGVNAPGELIKALDYLNNREDIDTIILARGGGSIEELWAFNDEKLAYAVYNSKKPVVTGVGHETDFTIVDFVSDRRAPTPSAAAEIAVPNINEEMNSFVSLKRALDTSIKTYIQNKCNQLEIAKRMLEKNSPEILIVNGYSSIDNFKYVLDMRIANKIKIEKEKILRYNSILKSNSPINILNKGYSIISDEIGNNISNVDKLKEPDKVHITFKDGKVNAKIDILREGHHHHHH
MSLYKAVFSDFNGTLLTSQHTISPRTVVVIKRLTANGIPFVPISARSPLGILPYWKQLETNNVLVAFSGALILNQNLEPIYSVQIEPKDILEINTVLAEHPLLGVNYYTNNDCHARDVENKWVIYERSVTKIEIHPFDEVATRSPHKIQIIGEAEEIIEIEVLLKEKFPHLSICRSHANFLEVMHKSATKGSAVRFLEDYFGVQTNEVIAFGDNFNDLDMLEHVGLGVAMGNAPNEIKQAANVVTATNNEDGLALILEEKFPEEGHHHHHH
MSLYKILLADDERIILDGMAGIIEWESLGASLIGKAQNGHEAYEKIVHKQPHIVITDVKMPGMDGLELIKKVSAVSPSVQFIVLSGFGEFEYAKEAMKYGVKHYLLKPCNEQQIISSLEEIIAELKRQDVHKKKTAHLKHELDHIRSFAADQYLEGLIAGVAQLSPPPSLAGKKIRLLILKGEQSIDAAAREALGSALTAVCSSGEWTVLAVEENAAEKVAEVFADRKMAISQAGELRHAGQLFRDTAEASGDLHGSAVISKMIRLIADELGNPNLSLKWAAKDMLFMNPDYLGKLFKQETGEKFSQYVTRVRLEHAMKQMKIRRDVSVSEIAEEIGFGDNPKYFSLVFKKYTGLTPSEFRRKQGGASAGEGHHHHHH
MSLYTINIIPRVLHFKQPAGTSRGSYTTRNVWYIHLSSIECPGRVGVGECAPLPKLSCDDLPDYEQVLRSACQRLEQTGELDIESLRGYPSILFGLETALRHYETQSWALWDTPFSRGEVGIPINGLIWMGSFDRMLQQIEVKMQAGYRCIKLKIGAINFEEELALLRHIRAHYSAREIELRVDANGAFSPADAMDKLNRLAELDLHSIEQPIRAGQWEEMARLAAESPLPIALDEELIGCNALERKRELLAAIHPRYIILKPSLHGGISGGNEWIAEAEKQHIGWWITSALESNIGLNAIAQWCATFRNPLPQGLGTGLLFTDNVEMPLEIRKDCLWFCKEGHHHHHH
MSLYTLYSFGTPNGFKPTIMLEELTQPYTIELIDITQGEQFNPDFLKISPNNKIPVLHDQTNDFYLMESVAILQYLAEKHRQFLPETTKEKYTIIQWCYFQAAHIGPMFGQFGHFHRYAQERVPYAMTRYADESMRLLGVMEKQLVKAPFIGGSNYTIADMAIWPWIWCFQFIYGQTIDAKQFPSLMSWYQRISERQAVRATLTAYGREGHHHHHH
MSMSHINYNHLYYFWHVYKEGSVVGAAEALYLTPQTITGQIRALEERLQGKLFKRKGRGLEPSELGELVYRYADKMFTLSQEMLDIVNYRKESNLLFDVGVADALSKRLVSSVLNAAVVEGEPIHLRCFESTHEMLLEQLSQHKLDMIISDCPIDSTQQEGLFSVRIGECGVSFWCTNPPPEKPFPACLEERRLLIPGRRSMLGRKLLNWFNSQGLNVEILGEFDDAALMKAFGAMHNAIFVAPTLYAYDFYADKTVVEIGRVENVMEEYHAIFAERMIQHPAVQRICNTDYSALFSPAVR
MSMTDLLNAEDIKKAVGAFSATDSFDHKKFFQMVGLKKKSADDVKKVFHMLDKDKSGFIEEDELGFILKGFSPDARDLSAKETKMLMAAGDKDGDGKIGVDEFSTLVAES
MSNEYDEYIANHTDPVKAINWNVIPDEKDLEVWDRLTGNFWLPEKIPVSNDIQSWNKMTPQEQLATMRVFTGLTLLDTIQGTVGAISLLPDAETMHEEAVYTNIAFMESVHAKSYSNIFMTLASTPQINEAFRWSEENENLQRKAKIIMSYYNGDDPLKKKVASTLLESFLFYSGFYLPMYLSSRAKLTNTADIIRLIIRDESVHGYYIGYKYQQGVKKLSEAEQEEYKAYTFDLMYDLYENEIEYTEDIYDDLGWTEDVKRFLRYNANKALNNLGYEGLFPTDETKVSPAILSSLSPNADENHDFFSGSGSSYVIGKAEDTTDDDWDF
MSNISTPQPRIGFVSLGCPKNLVDSERILTELRTEGYQVVPRYDDAELVIVNTCGFIDSAVQESLEAIGEALNENGKVIVTGCLGAKENQIREVHPKVLEITGPHSYEQVLSHVHQYVPKPTHNPFTSLVPEQGVKLTPRHYAYLKISEGLEHHHHHH
MSNKLDGINKMITAKHKQMDDLYDEKREVKALIDESDELNHSIEQLYQHLGDRYHSSNMASRMEQFRDEFHFAKRRSTEALYEQQQQIQHGIRKAEEEMIDLEMRRNVEIETVTKEENKWKQLEHHHHHH
MSNKNYVFEEAKESLSSILFNGDSDRTEAGFFDGSVESWNDEDMIDGAKWVDRLVSEMTKAINIDDMRRRVAVILEALESIIKKNTNASKKLEYASMKESLQSLINDNQILKRVIANQHQRSSENEEKAKQVLHLRGVVGQYQEQVHKLELSNYAMKLHLQRSQQQQTSFSGNLPPDIY

Soluble on expression in E. coli, not soluble:
MSLYLFGESDHYLWLPRGLLYPLQDKFKQVSVEDRRKVQRSISVEFKGELTFEQELALSDMTSKENGLLHAETGFGKTVLGAALISERKTKTIILVHNKQLLDQWLDRLNCFLTFEEEEAIRYTASGREKVIGYVGQYGGTKKWLSKLVDVVMIQSLFKLENSQSLLDEYEMMIVDECHHVSALMFEKVVAQFRGKYLYGLTATPERKNGHEPIVFQRIGEILHTADKREGHHHHHH
MSLYYKVAVSGSGKVLNVFSSEELLIGERVWLNWRNGKVKGYVLERSLSHENEATPSERDGKSFLSEGHVEIAKWVSERFFSPLGMVFDLFFPQGIDDYKEEVVVSESPFLDFDRMTLRDFLENFGEKALKEMVKKGLVRVEKNFYVKEPRPRVKKRLFLKKRISEIIREHLTVKQRMVVEYLQFNDGVPLEELLEDLEVSKSVIETLQRKNIVEIVSGDVFPKKRRILRGDFKGNISKENLFFGPTGSGKTEALFELIDVYSRKGTVLFLVPEVSVLTHTLSRLKGAFPDLKIGIYHSYLSRARKNLEWYKAASGKIDVLLGTRSAVFVPVKNLSLLIVDEEHDESFYQHTRPSYDAIVVARKISEVFDVPIILSSATPDLWTYREAKEGRIRTFNFTRRFGSLSVEVVDMRNEEKIGSFAKKTLDRIEETLEEGKRVLIYVRRKGFWGRVQCEVCGYVLKCENCDVSLVYHSDTHSLKCHQCGREYGLVESCPRCGGRLVGRTAGTERVERELKRYFPTRRIARVDREVVDNIMELESYIDKLIRGEIDILVGTRLITKSLSVPEIGLVCIMDVDSLIFNPDYSSSLRTFQLVVQALGRASRGDQGKAIIQTYNPEDTIIRKALEEDVNGFYAEELERRKALGYPPYRHLIQVAVKSKNPEVGKNSLTSLKEFLKGEEVLGPVEHWVFKLRGFYRHHLIVKTEDLERVLPKLEKALRILGIDAIVRVDPPTLEVSDEGHHHHHH
MSMDIVMKSDEQPFISAPVCFKTFAFFAKASAEECKLLASGSNARESFQQATGLSEKITEDIYRQIDVSHISSMVFNREMDGGIERNRLGSQAILLDENSRRRNPQFKSIALRSLRYDHIDHRALARKSPHLMPPTYIKEEIMDDELDEVKEEEVSVGEAALPTAKVELNMDHPEKDLIISTSVYLGYTRTLQYHEIRLGRLMKVTDRLELTGDHTLRDLKNAFSCPIDFSFSDDFSEKKPSFKDMAKNKWPSSMFFIHDTFYIDSNTGDQFVDPSITIRTWAKKFDYIGPMHVKQMSETRIGDLICRLGQPYVYIHQGVCEHLIVFNDLCLRDESHTNVEFPRRLVERNFRRIACDTCKEASAHWMIVDHDNLLPNSPGYLCSSCYKEFCFDVNGNKVCQFKAVPYCDRKDIGDGRQFFTELDL
MSMLCSLYRITPEQVTKLKDFPDAIGELVGFTAPPPKVSFLSKLFGKPPKQLSSSGQQFEPVAESDIFELNQAWHILHFLFSGTNAESPWPGGFLISGGEEIGPDQGYGPIRLFDSELSRAVAGFLDTQSFKMLDSAYVASEIEATEIYWKVSSEHTERQRQLEELWSMVKELQTFFEHTVRAGNATLLSIY
MSNELPWQVWTPDDLAPPPETFVPVEADNVTLTEDTPEPELTAEQQLEQELAQLKIQAHEQGYNAGLAEGRQKGHAQGYQEGLAQGLEQGQAQAQTQQAPIHARMQQLVSEFQNTLDALDSVIASRLMQMALEAARQVIGQTPAVDNSALIKQIQQLLQQEPLFSGKPQLRVHPDDLQRVEEMLGATLSLHGWRLRGDPTLHHGGCKVSADEGDLDASVATRWQELCRLAAPGVL
MSNFSEGEIFIANIEKKSLECRENDEIVVLKICELCNIIYPIFNKIFGNGFVGDTLKKDLKNSSSQVQRAIEKFPEETKYVSMLYSYNINKYENMEKLKRDLDNGIISFLWMKRTLEFIITFLEKCYITCSETKLSICAQEAYNEVLKKYHGFITSKIVKLCLKLSPTKDILTKKLGFQTHQQASTVLQKCLSITKPLVRDISVTIEKFNCDFEEKI
MSNICKTVSLRTRKIKDGHMLSYYLDYYPGYRDESTMKVIRHESLGIYIYAKPKNQMEQKYNLNLMARAEAIRCRRFEAIVNERYDFFDKEKMKGDFLAYFKKLADKKNSKWQHVYMHFRTFTQGKCTFGEINVDLCNRFREYLLTAPQGLHKNRKLHINSAANYWSTFRASIHTAYRDRKIKENPNGFLERIETIPTDKEHLSQDEVIRLASTPCSAPALKRAFLFSCLTALRKSDIKKLTWEEIQPYGSDGVMYVTTRMQKTKDIVHNPISEEALELIGYSPDKRGKVFPDFK
MSNIIKQLEQEQLKQNVPSFRPGDTLEVKVWVVEGSKRRLQAFEGVVIAIRNRGLHSAFTLRKVSNGVGVERVFQTHSPAVDSIAVKRKGAVRKAKLYYLRERSGKSARIKERLGALEHHHHHH
MSNLKQLRTRIKSVKSTQKITKAMQLVSASKMAKIKSQIANSNFYIEAVSKMMSAILSIDMYELSIEEQKFFNTVPNKANLLIVMTSQRGLCGTFNYSIIKQVKNDIKELENKGEQIKLIIIGKKGYEALKRQYVNYIDSYFELPKIHDENLMLQVKQKIMSAVENLEVSNCVIYFNKFKNAMTQIMTRQQILPVAKYQDDSMIDNPIVNLVGFGYKERGVKPINNRRATSDIVGESKSIDYNYEYEGESLISNLINLYVNSQINYALLQSRASEEGARMTAMENATNNANDLISKLVLKLNRSRQAIITTELIEIIAGSEVV
MSNSDDEIQEIEAKRQKMSQEDSEVEIEILDEPEQGKLKNSSMSDEQKLHEFAIITATDEAFAQSILQDVDWDLKKALDVFYGSEAFAEARSAAVMGASSSMASSGAAVMTAEDLKGFEVSVMSWNIDGLDGRSLLTRMKAVAHIVKNVNPDILFLQEVVDRDLAPIDKLQSLYKIYYSNKGCQYYTAILVSKMFDVEKHDVIHFQNSGMYRTLQILEGSIGGLKVFLLNTHLESTREHRPQRCAQFGFCMDKVREIIAQNPGALVFFGGDLNLRDEEVSRVPDGVKDAWEAAGSDNKTKFTWDTFKNDNKQGFHGAKMRFDRLYWSGPLDKVKFTLEGRQRIRSCLCFPSDHWAINATFFA
